Data from patent US6403769.

What was measured:
[1] = target: KGFR-HFc fusion protein (construct not specified); experiment: binding of 125I-KGF to KGFR-HFc in solution, capture on Gamma Bind G
[2] = target: keratinocyte growth factor receptor (KGFR) (UniProt P21803); experiment: cell-based or functional assay
[3] = target: keratinocyte growth factor receptor (KGFR) (UniProt P21803); experiment: competition with 125I-KGF on 32D cells expressing KGFR

B1: keratinocyte growth factor (KGF) (ligand, human, UniProt P21781 32-194, looked up)
chain: CNDMTPEQMATNVNCSSPERHTRSYDYMEGGDIRVRRLFCRTQWYLRIDKRGKVKGTQEMKNNYNIMEIRTVAVGIVAIKGVESEFYLAMNKEGKLYAKKECNEDCNFKELILENHYNTYASAKWTHNGGEMFVALNQKGIPVRGKKTKKEQKTAHFLPMAIT
ligand concentration at which saturable binding was achieved [1]: 15 to 25 ng/mL
half-maximal stimulation of 3H-thymidine uptake in BALB/MK cells [2]: 10 pM
Kd [3]: 0.13 nM
